# According to the nanobody polyreactivity screen of Harvey et al. (2022):
# Test: yeast display, Sf9 membrane polyspecificity reagent, FACS + sequencing; frameworks hold sequencing errors
# Summary of the method: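 Sorting gates, low and high (top ~1%), were placed on anti-HA fluorescence to track expression and on streptavidin fluorescence to track reagent binding. A clone's polyreactivity label is taken from the gate it came out of. The reagent was 10% biotinylated, detergent-solubilized Sf9 membrane, applied for 1 hour at 4 °C to galactose-induced yeast display cells.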
row,Sequence,polyreactivity (PSR sort gate)
1,QVQLVESGVGLVQAGGSLRLSCAASGGIFVPYAMGWYRQAPGKEREWVARIRSGGTTNYADSVKGRFTISRDNAKNTVYLQRNSLKPEDTAVYYCAVAAGIPQRRDYYWGQGTQVTVSS,high polyreactivity
2,QVQLVESGGGLVQAGGSLRLSCAASGSTFTEYAMGWYRQAPGKERELVAAITNSGSSTNYEDSVKGRFTISRDNAKNTVYLQMNSLKPEDTAVYYCNASSYPWEYYYLYYGYDYWGQGTQVTVSS,low polyreactivity
3,QVQLVESGGGLVQAGGRLRLSCAASGSIFNYYARGWYRQAPGKERELVAAIPTSGGNPYYADSVKGRFTISRDNAKNTVKLQMNSLKPEDTALYNCAADYWASGGEYDYWGQGTQVTVSS,low polyreactivity
4,QVQLLESGGGLVQAGGSLRLSCAASGLIMVYYTMGWYRQAPGKERELVASISKSGGRTYYADSVKGRFTISRDNAKNTVYLQMNSLKPEDTAVYYCAAQRVQYSRRDYWGQGTQVTVSS,high polyreactivity
5,QVQLVESGGGLVQAGGSLRLSCAASGITFYYYAMGWYRQAPGKERELVAAISRSGITYYADSVKGRFTISRDNAKNTVYLQMNSLKPEDTAVYYCAAGRRFDQSMYYWGQGTQVTVSS,high polyreactivity
6,QVQLVESGGGLVQAGGSLRLSCAASGRIFRGYAMGWYRQAPGKERELVAAISSGVSTNYADSVKGRFTISRDNAKNTVYLQKNSLKPVDTAVYYCAAYFYSPYGTAGKYRRRYNYWGQGTQVTVSS,high polyreactivity
7,QVQLVESGGGLVQAGGSLSLSCAASGRTFTPNVMGWYRQAPGKERELVAGISSTGGSTYYADSVKGRFTISRDNAKNTVYLHMNSLKPEDTAVYYCAKEYYDGYFPTFDYDYWGQGTQVTVSS,low polyreactivity
8,QVQLVESGGGLVQAGGSLRLSCAASGFTFTYYAMGWYRQAPGKERELVAAITKSGGSTYYADSVKGRFTISRDNAKNTVYFQMNSLKPEDTAVYYCAADTRYGRERYYWGQGTQVTVSS,high polyreactivity
9,QLQLVESGGGLVQAGGSLRLSCAASGLIFYDNMGWYRQAPGKERELVAAISSSGGSTSYADSVKGRFTISRDNAKNTVYLHMNSLKPEDTAVYYCAADSYPAYLGFVGFDYWGQGTQVTVSS,low polyreactivity
10,QVQLEESGGALFQAGGSIRLSCAASGYTFDAYAMGWYRQAPGKERELVADINYSVGSTTYADSVKGRFTISRDNAKNTVYLQMNSLKTEDTAVYYCAAQGTWYAWDYDYWGQGTQVTVSS,low polyreactivity
11,QVQLVESGGGLVQAGGSLRLSCAASGSIFESYAMGWYRQAPGKERELVASISGGGSTYYADSVKGRFTISRDNAKNTVYLQMNSLKPEDTAGYYCATVYVRYRQSRLIRYGYWGQGTQVTVSS,high polyreactivity
12,QVQLVESGGGLVQAGGSLRLSCAASGLTISAYAMGWYRQAPGKERELVAAITSSGGSTYADSVKGRFTISRDNAKNTVYLQMNSLKPEVTAVYYCAARVVRYGYKYYYWGQGTQVTVSS,low polyreactivity
13,QVQLVESWGGLVQAGGSLRLSCAASGSTMRYYAMGWYRQAPGKERELVAAISSRGGRTYYSDSVKGRFTISRDNAKNTVYLQMNSLKPEDTAVYYCAARARERYYWGQGNQVTVSS,high polyreactivity
14,QVQLVESGGGLGQAGGSLRLSCPASGITFVYYAMGWYRQSPGKERELVATITKSGVSTYYADSVKGRFTISRDNAKYTVYLQMNSLKPEDTAVYYCAKDVSYRFYWTYDYWGQGTQVTVSS,low polyreactivity
15,QVQLVESGGGLVQAGGSLRLSCAASGITFSRNAMGWYRQAPGKERELVAVISTRGGRTYYADSVKGRFTISRDNAKNTVYLQMNSLKPEDTAVYYCAARSTYYRQQRGYDYWGQGTQVTVSS,high polyreactivity
16,QVQLVESGGGLVQAGGSLRLSCAASGFIFRRYAMGWSRPAPGNERELVAAITWSGGSTYYADSVKGRFTISRDNAKNTVYLQMNSLKPEDTAVYYCAAVYRQSGDYYSRDYYWGQGTQVTVSS,high polyreactivity
17,QVQLVESGGGLVQAGGSLRLICAASGLIFVYYAMGWYRQAPGKERELVAAIDWSSTRTYYADSVKGRFTISRDNATNTVYLQMNSLKPEDTAVYYCAAESRYLSWFDYWGQGTQVTVSS,high polyreactivity
18,QVQLVESGGGLVQAGGSLRLSCAASGSIFGSNAMGWYIQAPGKERELVAAITWSDGSTYYADSVKGRFTISRDNAKNTVYLQMNSLKPEDTAVYYCAADSWWGIYYSGYDYWGQGTQVTVSS,low polyreactivity
19,QVQLVESGGGLVQAGGSLRLSCAASGFTFSPNAMGWYRQAPGKERELVAAIDWNGGSTYYADSVKGRFTISRDNAKNTVYLQMNSLKPEDTAVYYCNADWVYWQYLTSFVTFDYWGQGTQVTVSS,low polyreactivity
20,QVQLVESGGGLVQAGGSLRLSCAASGFTIQRYAMGWYRQAPGKERELVAAITSGGSTYYADSVKGRFTISRDNAKNTVYLQMNSLKPEDTAVYYCATRAVWSSWGRRYDSWGQGTQVTVSS,high polyreactivity
21,QVQLVESGGGLVQAGGSLRLSCSASGITFLANAMAWYRPATGKERELVATITSRGASSYYADSVKVRFTISRDNAKNTVYLQMNSLKPEDTAVYYCAATVRRRYERYNDWAQGTQVTVSS,high polyreactivity
